In patent US20150344570A1 (published 2015):

T1: FcγRIIa R (human, UniProt P12318 34-217)
T1 construct: extracellular domain; Soluble His-tagged extracellular domain expressed in FreeStyle293 cells; analyte in Biacore; also called FcgRIIa R; FcgRIIaR; not shown: His tag attached to the C terminus
T1 sequence (looked up): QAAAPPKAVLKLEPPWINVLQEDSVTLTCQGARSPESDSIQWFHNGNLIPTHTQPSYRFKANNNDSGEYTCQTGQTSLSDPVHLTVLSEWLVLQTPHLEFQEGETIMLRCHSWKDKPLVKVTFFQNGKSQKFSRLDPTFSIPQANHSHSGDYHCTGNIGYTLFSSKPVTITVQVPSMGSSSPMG

T2: FcγRIIb (human, UniProt P31994 43-217)
T2 construct: extracellular domain; Soluble His-tagged extracellular domain expressed in FreeStyle293 cells; analyte in Biacore; also called FcgRIIb; 2b; not shown: His tag attached to the C terminus
T2 sequence (looked up): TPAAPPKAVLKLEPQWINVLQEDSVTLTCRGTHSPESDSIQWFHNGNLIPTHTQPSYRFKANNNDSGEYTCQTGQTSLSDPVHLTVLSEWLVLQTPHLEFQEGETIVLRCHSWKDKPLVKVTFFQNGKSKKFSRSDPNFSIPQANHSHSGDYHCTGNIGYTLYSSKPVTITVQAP

B1: GpH7-A5/GpH7-B3 variant P329_03V/GpL16-k0 (antibody, human IgG1, kappa)
heavy 1: not shown
heavy 2: not shown
light: DIVMTQSPLSLPVTPGEPASISCQASESLVHSNRNTYLHWYLQKPGQSPQLLIYKVSNRFSGVPDRFSGSGSGTDFTLKISRVEAEDVGVYYCSQNTHVPPTFGQGTKVEIERTVAAPSVFIFPPSDEQLKSGTASVVCLLNNFYPREAKVQWKVDNALQSGNSQESVTEQDSKDSTYSLSSTLTLSKADYEKHKVYACEVTHQGLSSPVTKSFNRGEC
notes: Heterodimerized anti-glypican-3 IgG1 antibody; alteration only in the GpH7-B3 H chain; position in EU numbering; also called He Ab
B2: GpH7-A5/GpH7-B3 variant S298_15Y/GpL16-k0 (antibody, human IgG1, kappa)
heavy 1: not shown
heavy 2: not shown
light: B1 light
notes: as for B1
B3: GpH7-A5/GpH7-B3 variant S298_16H/GpL16-k0 (antibody, human IgG1, kappa)
heavy 1: not shown
heavy 2: not shown
light: B1 light
notes: as for B1
B4: GpH7-A5/GpH7-B3 variant S298_12R/GpL16-k0 (antibody, human IgG1, kappa)
heavy 1: not shown
heavy 2: not shown
light: B1 light
notes: as for B1
B5: GpH7-A5/GpH7-B3 variant S298_10E/GpL16-k0 (antibody, human IgG1, kappa)
heavy 1: not shown
heavy 2: not shown
light: B1 light
notes: as for B1
B6: GpH7-A5/GpH7-B3 variant P329_10E/GpL16-k0 (antibody, human IgG1, kappa)
heavy 1: not shown
heavy 2: not shown
light: B1 light
notes: as for B1
B7: GpH7-A5/GpH7-B3 variant P329_16H/GpL16-k0 (antibody, human IgG1, kappa)
heavy 1: not shown
heavy 2: not shown
light: B1 light
notes: as for B1
B8: GpH7-A5/GpH7-B3 variant P329_04F/GpL16-k0 (antibody, human IgG1, kappa)
heavy 1: not shown
heavy 2: not shown
light: B1 light
notes: as for B1
B9: GpH7-A5/GpH7-B3 variant P329_18N/GpL16-k0 (antibody, human IgG1, kappa)
heavy 1: not shown
heavy 2: not shown
light: B1 light
notes: as for B1
B10: GpH7-A5/GpH7-B3 variant P329_12R/GpL16-k0 (antibody, human IgG1, kappa)
heavy 1: not shown
heavy 2: not shown
light: B1 light
notes: as for B1
B11: GpH7-A5/GpH7-B3 variant S298_20W/GpL16-k0 (antibody, human IgG1, kappa)
heavy 1: not shown
heavy 2: not shown
light: B1 light
notes: as for B1
B12: GpH7-A5/GpH7-B3 variant S298_18N/GpL16-k0 (antibody, human IgG1, kappa)
heavy 1: not shown
heavy 2: not shown
light: B1 light
notes: as for B1
B13: GpH7-A5/GpH7-B3 variant P329_11K/GpL16-k0 (antibody, human IgG1, kappa)
heavy 1: not shown
heavy 2: not shown
light: B1 light
notes: as for B1
B14: GpH7-A5/GpH7-B3 variant P329_09D/GpL16-k0 (antibody, human IgG1, kappa)
heavy 1: not shown
heavy 2: not shown
light: B1 light
notes: as for B1
B15: GpH7-A5/GpH7-B3 variant P329_06M/GpL16-k0 (antibody, human IgG1, kappa)
heavy 1: not shown
heavy 2: not shown
light: B1 light
notes: as for B1
B16: GpH7-A5/GpH7-B3 variant P329_08L/GpL16-k0 (antibody, human IgG1, kappa)
heavy 1: not shown
heavy 2: not shown
light: B1 light
notes: as for B1
B17: GpH7-A5/GpH7-B3 variant P329_15Y/GpL16-k0 (antibody, human IgG1, kappa)
heavy 1: not shown
heavy 2: not shown
light: B1 light
notes: as for B1
B18: GpH7-A5/GpH7-B3 variant S298_19Q/GpL16-k0 (antibody, human IgG1, kappa)
heavy 1: not shown
heavy 2: not shown
light: B1 light
notes: as for B1
B19: GpH7-A5/GpH7-B3 variant P329_14T/GpL16-k0 (antibody, human IgG1, kappa)
heavy 1: not shown
heavy 2: not shown
light: B1 light
notes: as for B1
B20: GpH7-A5/GpH7-B3 variant P329_19Q/GpL16-k0 (antibody, human IgG1, kappa)
heavy 1: not shown
heavy 2: not shown
light: B1 light
notes: as for B1
B21: GpH7-A5/GpH7-B3 variant P331_01G/GpL16-k0 (antibody, human IgG1, kappa)
heavy 1: not shown
heavy 2: not shown
light: B1 light
notes: as for B1
B22: GpH7-A5/GpH7-B3 variant P329_07I/GpL16-k0 (antibody, human IgG1, kappa)
heavy 1: not shown
heavy 2: not shown
light: B1 light
notes: as for B1
B23: GpH7-A5/GpH7-B3 variant P329_13S/GpL16-k0 (antibody, human IgG1, kappa)
heavy 1: not shown
heavy 2: not shown
light: B1 light
notes: as for B1
B24: GpH7-A5/GpH7-B3 variant S298_11K/GpL16-k0 (antibody, human IgG1, kappa)
heavy 1: not shown
heavy 2: not shown
light: B1 light
notes: as for B1
B25: GpH7-A5/GpH7-B3 variant Y300_12R/GpL16-k0 (antibody, human IgG1, kappa)
heavy 1: not shown
heavy 2: not shown
light: B1 light
notes: as for B1
B26: GpH7-A5/GpH7-B3 variant S298_14T/GpL16-k0 (antibody, human IgG1, kappa)
heavy 1: not shown
heavy 2: not shown
light: B1 light
notes: as for B1

What was measured:
FcγRIIa R [1] = biological target: T1, FcγRIIa R; assay: SPR (Biacore), antibody captured via antigen peptide, FcγR as analyte
Method: (§1) The heterodimerized antibodies He Abs in which one of the H chains was introduced with an alteration were assayed for their binding activities to each activating FcγR and inhibitory FcγR according to the method described in Example 4. […] The activating FcγRs in FIGS. 26, 27, 28, and 29 are FcγRIa, FcγRIIa (R), FcγRIIa (H), and FcγRIIIa, respectively.
(§2) Analysis of interaction between objective antibody and the FcγR was carried out using Biacore T100 (GE Healthcare). HBS-EP+ (GE Healthcare) was used as the running buffer, and the measurement temperature was set to 25° C. Chips produced by immobilizing the antigen peptide by the amine coupling method to a Series S Sencor Chip CM5 (GE Healthcare), or alternatively, chips produced by allowing preliminarily biotinylated antigen peptides to interact with and immobilize onto a Series S Sensor Chip SA (certified) (GE Healthcare) were used. Antibodies of interest were captured onto an antigen peptide-immobilized chip, and allowed to interact to each FcγR diluted with running buffer. To regenerate and repeatedly use the chip, the antibodies captured on the chip were washed off by reacting 10 mM glycine-HCl, pH 1.5.

FcγRIIb = biological target: T2, FcγRIIb; assay: as above
Method: as §1, §2

FcγRIIa R [2] = biological target: T1, FcγRIIa R; assay: ratio of He/Con_2aR to He/Con_2b (binding to FcγRIIb as reference); SPR

Row | Binder | He/Con_2aR (IIaR binding relative to GpH7-A5/GpH7-B3/GpL16-k0) (FcγRIIa R [1]) | He/Con_2b (IIb binding relative to GpH7-A5/GpH7-B3/GpL16-k0) (FcγRIIb) | He_2aR/2b (IIaR/IIb) (FcγRIIa R [2])
1 | B1 | 53.8 % of control (control = 100) | 38.5 % of control (control = 100) | 1.4
2 | B2 | 79.1 % of control (control = 100) | 61.4 % of control (control = 100) | 1.29
3 | B3 | 88.5 % of control (control = 100) | 63.5 % of control (control = 100) | 1.39
4 | B4 | 85.3 % of control (control = 100) | 57.8 % of control (control = 100) | 1.48
5 | B5 | 65.1 % of control (control = 100) | 47.6 % of control (control = 100) | 1.37
6 | B6 | 64.8 % of control (control = 100) | 52.7 % of control (control = 100) | 1.23
7 | B7 | 56.7 % of control (control = 100) | 39.1 % of control (control = 100) | 1.45
8 | B8 | 44.7 % of control (control = 100) | 32.2 % of control (control = 100) | 1.39
9 | B9 | 61.2 % of control (control = 100) | 40.4 % of control (control = 100) | 1.51
10 | B10 | 29.3 % of control (control = 100) | 17.6 % of control (control = 100) | 1.66
11 | B11 | 55.4 % of control (control = 100) | 41.1 % of control (control = 100) | 1.35
12 | B12 | 68 % of control (control = 100) | 48.1 % of control (control = 100) | 1.41
13 | B13 | 30.2 % of control (control = 100) | 16.9 % of control (control = 100) | 1.79
14 | B14 | 67.8 % of control (control = 100) | 53.5 % of control (control = 100) | 1.27
15 | B15 | 42.7 % of control (control = 100) | 29.1 % of control (control = 100) | 1.47
16 | B16 | 42.8 % of control (control = 100) | 29.1 % of control (control = 100) | 1.47
17 | B17 | 67.9 % of control (control = 100) | 45.7 % of control (control = 100) | 1.49
18 | B18 | 95 % of control (control = 100) | 73.3 % of control (control = 100) | 1.3
19 | B19 | 57.3 % of control (control = 100) | 37.9 % of control (control = 100) | 1.51
20 | B20 | 41.1 % of control (control = 100) | 30.7 % of control (control = 100) | 1.34
21 | B21 | 61 % of control (control = 100) | 45.4 % of control (control = 100) | 1.34
22 | B22 | 49.6 % of control (control = 100) | 34.6 % of control (control = 100) | 1.44
23 | B23 | 61.5 % of control (control = 100) | 41 % of control (control = 100) | 1.5
24 | B24 | 95.1 % of control (control = 100) | 61.3 % of control (control = 100) | 1.55
25 | B25 | 55.1 % of control (control = 100) | 41.2 % of control (control = 100) | 1.34
26 | B26 | 98.5 % of control (control = 100) | 77.9 % of control (control = 100) | 1.26
